Biological target: the molecule itself
Assay: negative-stain transmission electron microscopy; purified AtTCP21 on a glow-discharged carbon-coated copper grid, negatively stained with 2% uranyl acetate; protein dialyzed against 25 mM HEPES pH 7.2, 150 mM NaCl

B1: Arabidopsis thaliana TCP21 (natural protein)
chain: not shown
notes: full-length protein expressed from cDNA; also called AtTCP21; recombinant AtTCP21; source: E. coli BL21(DE3), pET28a, purified (Ni-NTA, SEC)
- binding result: binds
